Test results: patent US20230248800A1 (PHARMAIN, published 2023)
Where two headings read alike, the source gives them in different places. Each block holds one binder with its values, some of them ahead of it.

What was measured:
human V1a receptor [1] = target: T1, human V1a receptor (human, UniProt P37288 1-418); assay: cell-based or functional assay
human V1a receptor [2] = target: T1, human V1a receptor; assay: cell-based or functional assay; remark: listed apart in the source

T1 sequence (P37288 whole entry): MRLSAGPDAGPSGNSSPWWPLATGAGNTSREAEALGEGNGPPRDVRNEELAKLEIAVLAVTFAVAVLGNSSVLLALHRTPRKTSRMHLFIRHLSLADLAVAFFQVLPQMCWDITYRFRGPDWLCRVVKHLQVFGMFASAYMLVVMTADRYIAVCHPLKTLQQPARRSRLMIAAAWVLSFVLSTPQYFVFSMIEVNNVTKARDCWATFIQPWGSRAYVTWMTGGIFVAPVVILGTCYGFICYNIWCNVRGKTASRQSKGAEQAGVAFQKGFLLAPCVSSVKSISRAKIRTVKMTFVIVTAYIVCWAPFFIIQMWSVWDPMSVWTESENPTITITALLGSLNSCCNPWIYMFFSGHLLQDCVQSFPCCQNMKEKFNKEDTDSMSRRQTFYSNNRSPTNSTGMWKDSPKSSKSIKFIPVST

Estimated V1a EC50 (calcium flux) (human V1a receptor [1]): > 10000 nM
V1a Highest agonist effect (% of AVP) (human V1a receptor [1]): 30 % of AVP
B1: Mpa-Tyr-Phe-Hgn-Asn-Cys-Pro-Lys(X)a-Gly-NH2; (X)a = Ac [SEQ ID NO. 28] (peptide)
peptide: XFXNCPXG
modifications: Mpa at position 1, disulfide bond between Mpa and Cys; Hgn at position 4; acetyl (Ac) on the side chain of Lys 8; C-terminal amide

Estimated V1a EC50 (calcium flux) (human V1a receptor [2]): 27.3 nM
B2: Mpa-Tyr-Phe-Gln-Asn-Cys-Pro-Lys(X)a-Gly-NH2; (X)a = (Gly)6 [SEQ ID NO. 20] (peptide)
peptide: XFQNCPXG
modifications: Mpa at position 1, disulfide bond between Mpa and Cys; (Gly)6 on the side chain of Lys 8; C-terminal amide

Estimated V1a EC50 (calcium flux) (human V1a receptor [1]): > 10000 nM
V1a Highest agonist effect (% of AVP) (human V1a receptor [1]): 3.5 % of AVP
B3: Mpa-Tyr-Phe-Hgn-Asn-Cys-Pro-Dap-Gly-NH2 [SEQ ID NO. 17] (peptide)
peptide: XFXNCPXG
modifications: Mpa at position 1, disulfide bond between Mpa and Cys; Hgn at position 4; Dap at position 8; C-terminal amide

Estimated V1a EC50 (calcium flux) (human V1a receptor [1]): > 10000 nM
V1a Highest agonist effect (% of AVP) (human V1a receptor [1]): 40 % of AVP
B4: Mpa-Tyr-Phe-Hgn-Asn-Cys-Pro-Lys(X)a-Gly-NH2; (X)a = (Gly)9-Ac [SEQ ID NO. 26] (peptide)
peptide: XFXNCPXG
modifications: Mpa at position 1, disulfide bond between Mpa and Cys; Hgn at position 4; (Gly)9-Ac on the side chain of Lys 8; C-terminal amide

Estimated V1a EC50 (calcium flux) (human V1a receptor [2]): 12.6 nM
B5: Mpa-Tyr-Phe-Gln-Asn-Cys-Pro-Lys(X)a-Gly-NH2; (X)a = (Gly)9 [SEQ ID NO. 23] (peptide)
peptide: XFQNCPXG
modifications: Mpa at position 1, disulfide bond between Mpa and Cys; (Gly)9 on the side chain of Lys 8; C-terminal amide

Estimated V1a EC50 (calcium flux) (human V1a receptor [1]): > 10000 nM
B6: Mpa-Tyr-Phe-Hgn-Asn-Cys-Pro-Lys(X)a-Gly-NH2; (X)a = Lauric acid [SEQ ID NO. 27] (peptide)
peptide: XFXNCPXG
modifications: Mpa at position 1, disulfide bond between Mpa and Cys; Hgn at position 4; lauric acid on the side chain of Lys 8; C-terminal amide

Estimated V1a EC50 (calcium flux) (human V1a receptor [1]): 5.2 nM
V1a Highest agonist effect (% of AVP) (human V1a receptor [1]): 42.8 % of AVP
B7: Mpa-Tyr-Phe-Hgn-Asn-Cys-Pro-Lys-Gly-NH2 [SEQ ID NO. 25] (peptide)
peptide: XFXNCPKG
modifications: Mpa (mercaptopropionic acid) at position 1, disulfide bond between Mpa and Cys; Hgn (homoglutamine) at position 4; C-terminal amide

Estimated V1a EC50 (calcium flux) (human V1a receptor [1]): > 10000 nM
V1a Highest agonist effect (% of AVP) (human V1a receptor [1]): 0.2 % of AVP
B8: Mpa-Tyr-Phe-Hgn-Asn-Cys-Pro-dLys-Gly-NH2 (note: dLys = D-Lys) [SEQ ID NO. 18] (peptide)
peptide: XFXNCPKG
modifications: Mpa at position 1, disulfide bond between Mpa and Cys; Hgn at position 4; D-Lys at position 8; C-terminal amide

Estimated V1a EC50 (calcium flux) (human V1a receptor [1]): > 10000 nM
V1a Highest agonist effect (% of AVP) (human V1a receptor [1]): 2.5 % of AVP
B9: Mpa-Tyr-Phe-Hgn-Asn-Cys-Pro-Lys(12-aminododecanoic acid)-Gly-NH2 [SEQ ID NO. 19] (peptide)
peptide: XFXNCPXG
modifications: Mpa at position 1, disulfide bond between Mpa and Cys; Hgn at position 4; 12-aminododecanoic acid on the side chain of Lys 8; C-terminal amide

Estimated V1a EC50 (calcium flux) (human V1a receptor [1]): 1340 nM
V1a Highest agonist effect (% of AVP) (human V1a receptor [1]): 7.5 % of AVP
B10: Mpa-Tyr-Phe-Hgn-Asn-Cys-Pro-Lys(X)a-Gly-NH2; (X)a = Dap [SEQ ID NO. 29] (peptide)
peptide: XFXNCPXG
modifications: Mpa at position 1, disulfide bond between Mpa and Cys; Hgn at position 4; Dap on the side chain of Lys 8; C-terminal amide
